The source of these data is paper PMC10504260, “Identification of a c-type heme oxygenase and its function during acclimation of cyanobacteria to nitrogen fluctuations” (Communications Biology, 2023).

For experiment [1], the target named is Ssr1698 (c-type heme oxygenase, cHO), purified tag-less apo-Ssr1698 (Synechocystis sp. strain PCC 6803). Briefly: native gel or EMSA; clear native-PAGE (CN-PAGE) of purified tag-less Ssr1698; 5-12.5% acrylamide gradient gel, 0.01% DM and 0.025% deoxycholate in the cathode buffer, 4 °C.
Experiment [2] shares this target. Briefly: SEC; Superdex 200 Increase 10/300GL equilibrated with PBS buffer (pH 7.4); tag-less Ssr1698 after removal of GST by Factor Xa.
Experiment [3] concerns the target T1, Ssr1698 (cHO) (Synechocystis sp. PCC 6803, UniProt P73129).
T1 construct: full-length 96-residue protein; GST fusion from pGEX-5X-1 (BamHI/XhoI) in E. coli BL21(DE3) pLysS, GST tag removed by Factor Xa, SEC; dimer
T1 sequence (P73129 1-96): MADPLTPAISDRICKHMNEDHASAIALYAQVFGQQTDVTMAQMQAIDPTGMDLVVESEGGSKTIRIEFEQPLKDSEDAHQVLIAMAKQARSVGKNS
Briefly: HPLC and LC-MS of reaction product. In kind it is biochemical. The following applies: substrate MP-11 (c-type heme), 10 mM ascorbic acid, 2 µM catalase, PBS pH 7.4, 2 h.

The target of experiment [4] is T1, Ssr1698 (cHO). Briefly: UV-visible assay of MP-11 (c-type heme) degradation with added biliverdin IXα. The following applies: product inhibition; substrate MP-11, ascorbate, catalase, PBS pH 7.4. In kind it is biochemical.

The stoichiometry N is a count of units in the complex or per binding partner. For the compound “Ssr1698 (c-type heme oxygenase, cHO), purified tag-less apo-Ssr1698 (enzyme)”, the stoichiometry N in experiment [1] and in experiment [2] was 2 in each case.
Consider `C=CC1=C(C)C(=Cc2[nH]c(C=C3N=C(C=C4NC(=O)C(C)=C4C=C)C(C)=C3CCC(=O)O)c(CCC(=O)O)c2C)NC1=O` [biliverdin IXα], for which the “HPLC and LC-MS of reaction product” value in experiment [3] was “biliverdin IXα molecule, 11-amino acid peptide and free iron were identified in the reaction product”. In addition, in experiment [4], the “suppression of c-type heme degradation” value is “degradation of c-type heme is significantly suppressed after the addition of biliverdin IXα”.
